Data from patent US20050014242.

Key:
[1] = test system: CFEK2-prostasin-6×HIS (purified zymogen, not digested with EK)
[2] = test system: PFEK1-neuropsin-6×HIS (purified zymogen, not digested with EK)
[3] = test system: PFEK1-protease MH2-6×HIS (purified zymogen, not digested with EK)
[4] = test system: PFEK1-protease O-6×HIS (purified zymogen, not digested with EK)
[5] = test system: PFEK2-prostasin-6×HIS (purified zymogen, not digested with EK)
[6] = test system: PFEK2-protease F-6×HIS (purified zymogen, not digested with EK)
Sequence of PFEK2-protease F-6×HIS (purified zymogen, not digested with EK) (chain, as listed by the source): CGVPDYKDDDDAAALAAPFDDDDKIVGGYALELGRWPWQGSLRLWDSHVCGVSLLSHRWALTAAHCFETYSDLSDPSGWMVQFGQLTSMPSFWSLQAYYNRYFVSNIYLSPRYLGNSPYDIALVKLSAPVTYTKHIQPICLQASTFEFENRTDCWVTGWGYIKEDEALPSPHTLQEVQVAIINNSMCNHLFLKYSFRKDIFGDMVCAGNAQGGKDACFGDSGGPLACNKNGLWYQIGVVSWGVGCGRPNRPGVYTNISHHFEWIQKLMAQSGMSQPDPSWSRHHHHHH

Sequence of PFEK1-protease MH2-6×HIS (purified zymogen, not digested with EK) (chain, as listed by the source): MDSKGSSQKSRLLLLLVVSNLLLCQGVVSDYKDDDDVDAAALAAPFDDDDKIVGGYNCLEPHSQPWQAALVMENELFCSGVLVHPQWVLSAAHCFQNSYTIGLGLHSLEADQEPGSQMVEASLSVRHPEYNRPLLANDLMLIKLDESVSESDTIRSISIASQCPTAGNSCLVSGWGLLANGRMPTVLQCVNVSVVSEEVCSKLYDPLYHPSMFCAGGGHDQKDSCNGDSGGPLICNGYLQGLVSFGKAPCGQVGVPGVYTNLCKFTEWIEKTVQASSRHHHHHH

## enterokinase
[1]
  cleavage of the zymogen (SDS-PAGE and anti-FLAG Western blot): quantitative cleavage of the expressed and purified zymogen to generate the processed and activated protease
[2]
  cleavage of the zymogen (SDS-PAGE and anti-FLAG Western blot): quantitative cleavage of the expressed and purified zymogen to generate the processed and activated protease
[3]
  cleavage of the zymogen (SDS-PAGE and anti-FLAG Western blot): quantitative cleavage of the expressed and purified zymogen to generate the processed and activated protease
[4]
  cleavage of the zymogen (SDS-PAGE and anti-FLAG Western blot): quantitative cleavage of the expressed and purified zymogen to generate the processed and activated protease
[5]
  cleavage of the zymogen (SDS-PAGE and anti-FLAG Western blot): quantitative cleavage of the expressed and purified zymogen to generate the processed and activated protease
[6]
  cleavage of the zymogen (SDS-PAGE and anti-FLAG Western blot): quantitative cleavage of the expressed and purified zymogen to generate the processed and activated protease
